The source of these data is patent EP4477666A1 (Max-Planck-Gesellschaft zur Förderung der Wissenschaften …, dated 2024).

One experiment addresses T1, human Nup133 β-propeller (human, UniProt Q8WUM0 67-514, limits assumed).
T1 construct: domain: β-propeller; also called human Nup133 beta propeller; human propeller
T1 sequence (looked up): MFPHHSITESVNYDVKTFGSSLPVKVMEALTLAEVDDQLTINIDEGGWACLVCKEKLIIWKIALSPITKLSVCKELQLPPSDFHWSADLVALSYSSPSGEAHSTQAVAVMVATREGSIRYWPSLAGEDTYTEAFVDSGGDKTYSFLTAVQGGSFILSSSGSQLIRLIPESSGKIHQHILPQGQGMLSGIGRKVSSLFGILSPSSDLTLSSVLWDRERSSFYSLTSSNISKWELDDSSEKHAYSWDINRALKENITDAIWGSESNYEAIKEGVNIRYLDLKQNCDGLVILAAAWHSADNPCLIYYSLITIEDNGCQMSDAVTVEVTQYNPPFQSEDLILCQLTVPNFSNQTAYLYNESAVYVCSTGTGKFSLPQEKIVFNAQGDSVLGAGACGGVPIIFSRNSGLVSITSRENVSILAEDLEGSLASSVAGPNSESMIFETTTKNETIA
The experiment in a line: BLI (Octet Red96), biotinylated VHH on streptavidin sensors, 40 nM propeller in solution.

Experiment [1] deals with T2, Xenopus Nup133 β-propeller (Xenopus).
T2 construct: domain: β-propeller; also called Xenopus Nup133 beta propeller; Xenopus propeller
The experiment is described as above.

The target of experiment [2] is T3, human Nup133 in nuclear pore complexes of HeLa cells (human, UniProt Q8WUM0 1-1156).
T3 construct: whole, on cells; Endogenous protein inside permeabilized HeLa cells, as part of assembled NPCs; not on the cell surface; also called human NPCs
T3 sequence (looked up): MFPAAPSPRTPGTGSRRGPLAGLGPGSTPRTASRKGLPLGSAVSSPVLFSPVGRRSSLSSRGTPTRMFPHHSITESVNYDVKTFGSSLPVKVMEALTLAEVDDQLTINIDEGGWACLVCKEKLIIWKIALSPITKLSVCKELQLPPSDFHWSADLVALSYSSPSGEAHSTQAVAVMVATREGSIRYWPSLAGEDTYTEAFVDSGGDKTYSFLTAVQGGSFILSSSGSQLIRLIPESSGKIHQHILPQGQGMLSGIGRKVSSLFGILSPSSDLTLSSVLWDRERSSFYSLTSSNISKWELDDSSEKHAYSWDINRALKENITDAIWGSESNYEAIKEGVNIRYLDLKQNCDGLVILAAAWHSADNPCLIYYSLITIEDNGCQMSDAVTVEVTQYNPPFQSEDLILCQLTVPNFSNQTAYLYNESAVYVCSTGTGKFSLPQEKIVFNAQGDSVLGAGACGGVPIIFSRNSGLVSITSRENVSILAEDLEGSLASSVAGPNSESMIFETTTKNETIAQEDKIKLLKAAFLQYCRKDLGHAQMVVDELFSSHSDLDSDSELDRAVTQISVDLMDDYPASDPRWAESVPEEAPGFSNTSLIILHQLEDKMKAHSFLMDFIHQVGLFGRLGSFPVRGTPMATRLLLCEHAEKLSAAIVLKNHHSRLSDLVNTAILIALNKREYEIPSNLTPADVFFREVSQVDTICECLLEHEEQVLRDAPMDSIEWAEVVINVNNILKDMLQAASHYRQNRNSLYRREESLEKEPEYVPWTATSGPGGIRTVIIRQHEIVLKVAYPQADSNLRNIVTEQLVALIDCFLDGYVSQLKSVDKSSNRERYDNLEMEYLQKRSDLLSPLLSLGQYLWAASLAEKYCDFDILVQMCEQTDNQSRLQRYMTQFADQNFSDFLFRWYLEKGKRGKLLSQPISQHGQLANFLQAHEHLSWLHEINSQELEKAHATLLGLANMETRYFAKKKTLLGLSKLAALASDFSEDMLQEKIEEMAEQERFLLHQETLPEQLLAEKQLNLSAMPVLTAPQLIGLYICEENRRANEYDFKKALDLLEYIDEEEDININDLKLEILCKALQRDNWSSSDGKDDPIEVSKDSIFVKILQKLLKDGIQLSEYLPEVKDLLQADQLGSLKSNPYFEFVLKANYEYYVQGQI
The experiment in a line: immunofluorescence of HeLa cells with fluorophore-labelled VHH (Figures 1 and 2).

A further experiment deals with T4, human Nup358 (human, UniProt P49792 1-145).
T4 construct: The stainings were on whole NPCs of HeLa cells
T4 sequence (looked up): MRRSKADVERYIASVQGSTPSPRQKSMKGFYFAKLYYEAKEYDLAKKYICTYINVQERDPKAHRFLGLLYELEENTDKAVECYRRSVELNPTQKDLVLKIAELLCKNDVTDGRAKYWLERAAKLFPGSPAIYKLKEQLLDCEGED
The experiment in a line: Table 1, target and cross-reactivity (immunofluorescence, Figure 1).

B1: KG1D08, biotinylated, reduced form (structural cysteines not disulfide-bonded) (VHH)
VHH: QVQLVESGGGLVQAGGSLRLSCAASGRSFRGNIMAWFRQTPGKERLFVASITGSGYTSYENSVKGRFTISRDSARDTVDLQMTTLAPEDTAVYYCAGRFRGGHNRMPDAYEYWGQGTQVTVSS
modifications: Biotin-PEG11-maleimide on the two additional cysteines at N- and C-terminus; structural cysteines reduced ; Two additional ectopic cysteines at the N- and C-terminus, not in the letters, each carry Biotin-PEG11-maleimide. Struct [CUT]
notes: Expressed in the cytoplasm of E. coli NEB Express; also called reduced KG1D08; not shown: The short N- and C-terminal extensions that carry the two ectopic, biotinylated cysteines
In the case of B1, the Kd (commonly the equilibrium constant for the complex coming apart) with human Nup133 β-propeller is around 2 nM; in experiment [1] it was below 0.01 nM.

B2: KG1D08 (VHH)
VHH: B1 VHH
notes: also called anti-Nup133 VHH KG1D08
With B2, the binding result in experiment [2] was “binds”.

B3: KG1D08, biotinylated, post-production disulfide-bridged form (VHH)
VHH: B1 VHH
modifications: Biotin-PEG11-maleimide on the two additional cysteines at N- and C-terminus; structural cysteines quantitatively oxidized to the intramolecular disulfide bond ; Two additional ectopic cysteines at the N- and C-terminus, not in the letters, each carry Biotin-PEG11-maleimide. Struct [CUT]
notes: Same preparation as the reduced form, then treated with 2 mM GSSG and 1.5 µM each DsbA, DsbC, DsbG for 5 minutes at 52°C (45 minutes heat up); also called KG1D08 with post-production disulfide-bonding; disulfide-stabilized VHH; not shown: The short N- and C-terminal extensions that carry the two ectopic, biotinylated cysteines
As for B3, the Kd with human Nup133 β-propeller is around 2 nM; in experiment [1], below 0.01 nM.

B4: xhNup358-Nb2t (VHH)
VHH: QVQLVESGGGLVQPGGSLRLSCAASGRPLSDYAMGWFRQAPGKEREFVAAISWKGGETFYAGSVKGRFTISRDDAKNSLYLQMNNLKLEDTAEYSCAAVLGSPHYSGTHYYPAEYDYWGQGTQVTVSS
notes: For staining the VHHs carried two ectopic cysteines (N- and C-termini) labelled with fluorophore maleimide
Turning to B4, the binding result with human Nup358 is “binds”.
